{"source": "patent US20260167684A1", "about": "(MERIDA BIOSCIENCES, published 2026)", "binders": {"B1": {"name": "Variant G11 (Fc fusion)", "chain 1": "MGCSSPPCECHQEEDFRVTCKDIQRIPSLPPSTQTLKLIETHLRTIPSHAFSNLPNISRIYVSIDVTLQQLESHSFYNLSKVTHIEIRNTPNLTYIDPDALKELPLLKFLGIFNTGLKMFPPLTKVYSTDIFFILEITDNPYMTSIPRNAFQGLCNETLTLKLYNNGFTSVQGYAFNGTKLDAVYLNKNKYLTVIDKDAFGGVYSGPSLLDVSQTSVTALPSKGLEHLKELRARNTWTLDKTHTCPPCPAPELLGGDSVFLFPPKPKDTLMISRTPEVTCVVVDVSHEEGEVKFNWYVDGVEVHNAKTKPREEQYNSTYRVVSVLTVLHQDWLNGKEYKCKVSNKALPAPIEKTISKAKGQPREPQVYTLPPCREEMTKNQVSLWCLVKGFYPSDIAVEWESNGQPENNYKTTPPVLDSDGSFFLYSKLTVDKSRWQQGNVFSCSVMHEALHNHYTQKSLSLSPGK", "chain 2": "DKTHTCPPCPAPELLGGDSVFLFPPKPKDTLMISRTPEVTCVVVDVSHEEGEVKFNWYVDGVEVHNAKTKPREEQYNSTYRVVSVLTVLHQDWLNGKEYKCKVSNKALPAPIEKTISKAKGQPREPQVCTLPPSREEMTKNQVSLSCAVKGFYPSDIAVEWESNGQPENNYKTTPPVLDSDGSFFLVSKLTVDKSRWQQGNVFSCSVMHEALHNHYTQKSLSLSPGK", "notes": "Knob-in-hole heterodimer; also called TSHR260 2P2R huIgG1 Fc P238D/D270E/P271G"}}, "key": {"[1]": {"target": "T1, FcγRIIB (human, UniProt P31994 46-217, limits assumed)", "T1 construct": "Soluble protein used in SPR", "T1 sequence (looked up)": "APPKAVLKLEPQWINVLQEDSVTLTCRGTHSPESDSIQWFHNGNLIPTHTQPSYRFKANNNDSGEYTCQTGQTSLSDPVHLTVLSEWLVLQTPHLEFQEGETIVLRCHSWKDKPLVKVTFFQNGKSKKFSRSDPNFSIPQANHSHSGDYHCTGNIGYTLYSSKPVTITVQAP", "assay": "SPR; molecule captured on CM5 chip, FcγR as analyte; steady-state fit", "protocol": "(§1) Binding assays using SPR were performed to determine the binding affinity of the exemplary molecules. Molecules were captured on a CM5 SPR chip. Increasing concentrations of FcγR analyte (FcγRIIA167H, FcγRIIA167R or FcγRIIB) were subsequently injected over the captured molecules and a single dissociation performed using single cycle kinetics. The data was then analyzed using steady state analysis which is suitable for low affinity interactions. In particular, a plot of response at equilibrium against the molecule concentration was generated."}, "[2]": {"target": "T2, FcγRIIA167R (UniProt P12318 36-218)", "T2 construct": "Soluble protein used in SPR", "T2 sequence (looked up)": "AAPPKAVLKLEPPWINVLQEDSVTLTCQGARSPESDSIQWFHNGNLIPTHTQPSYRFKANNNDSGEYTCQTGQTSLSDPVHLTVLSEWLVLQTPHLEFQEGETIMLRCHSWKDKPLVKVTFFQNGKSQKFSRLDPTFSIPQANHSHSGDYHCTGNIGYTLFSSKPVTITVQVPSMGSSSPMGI", "assay": "SPR; molecule captured on CM5 chip, FcγR as analyte; steady-state fit", "protocol": "as §1"}, "[3]": {"target": "T3, FcγRIIA167H (UniProt P12318 36-218)", "T3 construct": "Soluble protein used in SPR", "T3 sequence (looked up)": "T2 sequence (looked up) with R132H", "assay": "SPR, molecule captured on sensor chip, FcγRIIA167H as analyte, steady-state plot of response against concentration", "protocol": "as §1"}}, "note": "Numbering of substitutions follows the chain as printed. Numbers in names are those of the source.", "data": [{"binder": "B1", "values": [{"measurement": "Kd", "setting": "[1]", "value": 0.987, "unit": "µM"}, {"measurement": "Kd", "setting": "[2]", "value": 3.49, "unit": "µM"}, {"measurement": "binding result", "setting": "[3]", "value": "no binding (tested: about 2.4e-6 M)"}]}]}
